This note sets out measurements from paper PMC2928861.

For assay [1], the target named is ribosome-nascent chain complex (RNC) of Sec61β, TMD inside the ribosomal tunnel (UniProt P60468). The experiment in a line: co-IP.
For assay [2], the target named is ribosomes purified under native conditions from reticulocyte lysate. The experiment in a line: co-sedimentation.

Sequence of UniProt P60468 (P60468 whole entry, looked up, one chain of several): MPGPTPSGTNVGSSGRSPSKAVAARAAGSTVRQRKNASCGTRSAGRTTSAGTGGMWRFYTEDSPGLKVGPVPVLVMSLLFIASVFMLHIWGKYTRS

With “SRP (signal recognition particle), followed by its subunit SRP54 (from UniProt P61011 1-504) (complex)”, the occupancy of RNCs in assay [1] is 7%. This substance also registered a percent ribosome-bound in assay [2] of 30 to 50%.
In assay [1], “Bat3 complex (Bat3, TRC35 and Ubl4A) (from UniProt P46379;Q7L5D6;P11441)” gave an occupancy of RNCs of 27%.
“TRC40 (from UniProt O43681 1-348) (natural protein)” returned a percent ribosome-bound in assay [2] of under 1%.
